Source: publication PMC11281638

Biological target: Sso7d-IN (full-length HIV-1 integrase fused to Sso7d) (not stated | HIV-1)
Experiment: semi-quantitative SDS-PAGE (Coomassie) of the purified complex

Row | Substance | stoichiometry N (CTD per full-length IN) | stoichiometry N (IBD per full-length IN)
1 | IN-CTD (HIV-1 integrase residues 185-288), His-tagged (from UniProt P12497 186-289) (domain or fragment) | 0.3 | 
2 | LEDGF-IBD (lens epithelium-derived growth factor IN-binding domain, residues 307-460), His-tagged (from UniProt O75475 307-460) (domain or fragment) |  | 1
